Assay results published in PMC8857484.

How the values were obtained:
Assay in all cases: cross-linking; in vivo cysteine cross-linking with 180 μM aldrithiol-4, 20 min, 37 °C, in SUKO HEK-293T cells expressing single-cysteine STIM1 with or without UNC93B1-FLAG-MYC, treated or not with 0.5 μM thapsigargin for 5 min; non-reducing electrophoresis, blot with anti-STIM1
[1] = biological target: STIM1-A230C (cysteine-less STIM1 with a single cysteine at residue 230, TM region) (UniProt Q13586)
[2] = biological target: STIM1-L251C (cysteine-less STIM1 with a single cysteine at residue 251, CC1 domain) (UniProt Q13586)
[3] = biological target: STIM1-M241C (cysteine-less STIM1 with a single cysteine at residue 241, juxtamembrane region) (UniProt Q13586)

**Q.** For “STIM1-A230C (cysteine-less STIM1 with a single cysteine at residue 230, TM region) (from UniProt Q13586 23-685) (natural protein)”, which stoichiometry N [1] is on record?
**A.** Its stoichiometry N is 2.

**Q.** For “STIM1-L251C (cysteine-less STIM1 with a single cysteine at residue 251, CC1 domain) (from UniProt Q13586 23-685) (natural protein)”, which stoichiometry N [2] is on record?
**A.** Its stoichiometry N is 2.

**Q.** For “STIM1-M241C (cysteine-less STIM1 with a single cysteine at residue 241, juxtamembrane region) (from UniProt Q13586 23-685) (natural protein)”, which stoichiometry N [3] is on record?
**A.** Its stoichiometry N is 2.
